Source: publication PMC4365997 (Journal of cell science, 2008)

Target: T1, recombinant Rab11a (UniProt P62491 1-216)
T1 sequence (looked up): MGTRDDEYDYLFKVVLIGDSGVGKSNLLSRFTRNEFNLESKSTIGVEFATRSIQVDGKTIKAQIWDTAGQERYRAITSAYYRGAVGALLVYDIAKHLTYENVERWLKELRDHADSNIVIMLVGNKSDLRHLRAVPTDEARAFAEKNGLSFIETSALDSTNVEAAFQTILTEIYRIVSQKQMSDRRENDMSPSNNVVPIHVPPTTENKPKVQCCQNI
Experiment: pull-down

B1: Rip11/FIP5(490-652) (domain or fragment, UniProt Q9BXF6 490-652, looked up)
chain: ILGASPHHSSSGEEKAKSSWFGLREAKDPTQKPSPHPVKPLSAAPVEGSPDRKQSRSSLSIALSSGLEKLKTVTSGSIQPVTQAPQAGQMVDTKRLKDSAVLDQSAKYYHLTHDELISLLLQRERELSQRDEHVQELESYIDRLLVRIMETSPTLLQIPPGPP
B1: binds.
